Reference: the RNAGym collection of RNA variant scans (doi:10.1073/pnas.2313332121)
This sample holds only a part of the variants without activity.

B1: TPR 5TU (parent)
chain: GGAUCUUCUCGAUCUAACAAAAAAGACAAAUCUGCCACAAAGCUUGAGAGCAUCUUCGGAUGCAGAGGCGGCAGCCUUCGGUGGCGCGAUAGCGCCAACGUUCUCAACUAUGACACGCAAAACGCGUGCUCCGUUGAAUGGAGUUUAUCAUG

Variants of: B1
Assay: polymerase ribozyme fitness, log enrichment relative to wild type (log ratio); higher = more active; in vitro selection for triplet polymerase activity
Method in brief: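 Frozen incubation at −7 °C formed the core of a single, triplicate in vitro selection round applied to PCR-built, transcribed mutant libraries of each subunit of a heterodimeric triplet polymerase ribozyme. Extended constructs were gel-excised, captured with streptavidin beads and amplified by RT-PCR, and input and output libraries were Illumina-sequenced with a filter of ≥10 input reads and ≥1 read per output. Fitness is the logarithm of genotype enrichment relative to wild-type enrichment, with inverse-variance-weighted replicate averaging, and the logarithm is base 2.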

| Variant | polymerase ribozyme fitness (log ratio) |
| --- | --- |
| G71A C96G | -3.31 |
| A66U C93U | ≤ -4.2 |
| G70U C131U A137G | -4.05 |
| C69U A73U | -2.64 |
| A73U C95U G140A A142C | ≤ -4.2 |
| A73G U101C | 0.659 |
| G70C G94C | -3.44 |
| C75A C87A G88A | ≤ -4.2 |
| C76A U145G | -0.329 |
| C76A A98U G136A U145A | 0.194 |
| C72U A73U G83A | -2.51 |
| G67A C76A | -4.16 |
| G70C A97G | -3.97 |
| C75G U78C C99U C132G | ≤ -4.2 |
| G71C U111G | ≤ -4.2 |
| G70A C93A C103G | ≤ -4.2 |
| C72G C99G U139A | ≤ -4.2 |
| G68C G83C | ≤ -4.2 |
| A66G G84A G141C | ≤ -4.2 |
| C76A C85U A137G | -1.76 |
| A73U C87U G92A | 0.224 |
| C69U G86U C114U G141U | ≤ -4.2 |
| G68C A89C C96A A113G G124C U134C | ≤ -4.2 |
| C69A C85U C123A | -2.37 |

| Variant | polymerase ribozyme fitness (log ratio) |
| --- | --- |
| G68C G81U C96U U109C | ≤ -4.2 |
| C76A C85A A121G | -2.03 |
| C76U C79A C93U C116A C118A | ≤ -4.2 |
| C69U C87A | ≤ -4.2 |
| A73G U77G C103G G136U | ≤ -4.2 |
| C75U G84U C99U A115C | -3.35 |
| C75A U144G | ≤ -4.2 |
| A73U G83U A122C U127A | ≤ -4.2 |
| A66G C87U | -3.68 |
| A66G C96U | -3.66 |
| A73G G126A | -0.377 |
| G71U G84A A106U C118A G152A | ≤ -4.2 |
| C75G C76U A97U G141C | ≤ -4.2 |
| C72G A91G C99G U144A | ≤ -4.2 |
| C72U A98G U134C | -0.362 |
| G70C G83A C87U G117C | -3.9 |
| G67A G74C G94A A119G | ≤ -4.2 |
| C72G C99G | ≤ -4.2 |
| A73C C85A A110C A119U G136U | ≤ -4.2 |
| G68A C72A G80C G94A | ≤ -4.2 |
| G67U C75A G92A G124U | ≤ -4.2 |
| C69A C76G C79A U102A G141C | ≤ -4.2 |
| C72A A73U C85G A138C U148C | ≤ -4.2 |
| G70A C75U C87G C99G C103A G140U U144G U146G | ≤ -4.2 |

| Variant | polymerase ribozyme fitness (log ratio) |
| --- | --- |
| G67U G81A C93G C105U | ≤ -4.2 |
| G71C C116U | -2.51 |
| G68A A119U A122U U148A | ≤ -4.2 |
| G71C U109A U111G | ≤ -4.2 |
| C69A C93G C103A U130A | ≤ -4.2 |
| G68A G83A C116U | ≤ -4.2 |
| G71C C87A G128U C131U G152U | ≤ -4.2 |
| A73G G80U G94U U102C U127C | ≤ -4.2 |
| G71U G80C C95U U127A | -3.97 |
| C69U C85U | -1.39 |
| C75U G141C | -1.98 |
| A73G G92A C99G G141U | ≤ -4.2 |
| A73U C96U G112A | ≤ -4.2 |
| C76A C85G C87U G141C A142C | ≤ -4.2 |
| G67A A73C C87G | ≤ -4.2 |
| A73C A142C | ≤ -4.2 |
| A73G A98G U146G | -1.02 |
| A73G A122U G126U | -0.405 |
| G68A C87G G128U | ≤ -4.2 |
| C69A A120C | -1.7 |
| A73G C85U U102G G124A | ≤ -4.2 |
| C76A A107G U145C | ≤ -4.2 |
| G68A C87A A107G G117U C132G | ≤ -4.2 |
| A73G | 0.127 |

| Variant | polymerase ribozyme fitness (log ratio) |
| --- | --- |
| A73U | -0.424 |
| A73C | -2.13 |
| G70C C87A G140A | ≤ -4.2 |
| C75G C95U | -2.19 |
| C69G A121U | -2.04 |
| G71A G88A | ≤ -4.2 |
| C75A U90C C95U A107G U127G G141C | ≤ -4.2 |
| G71U C85G U134G U139G | ≤ -4.2 |
| G67C A91C | ≤ -4.2 |
| C72G C93G C95U C118G A138C U145A | ≤ -4.2 |
| C76A A91C G128C G143A | ≤ -4.2 |
| C72U C93U U111C A119U A142G | ≤ -4.2 |
| G74C C116G A150U | ≤ -4.2 |
| C76U C85U A138C U144A | ≤ -4.2 |
| G67U C87G U130A | ≤ -4.2 |
| C69U C85U U127G | -3.4 |
| C69G G83C | -4.05 |
| C76U A137G | -0.882 |
| C69G C87A | ≤ -4.2 |
| G71C C129A | ≤ -4.2 |
| A66G G83C U111G | ≤ -4.2 |
| G74U C96A C118U | -3.97 |
| A66U G86U C103A A142G | ≤ -4.2 |
| C69U G84A A115G G117U G136C | ≤ -4.2 |

| Variant | polymerase ribozyme fitness (log ratio) |
| --- | --- |
| G74C G81C | -3.94 |
| A66G C96U A138U U151A | ≤ -4.2 |
| G68C G136U A142G | ≤ -4.2 |
| C76A C85G | -3.53 |
| C76A A107G C123U A142C | -3.65 |
| C69U G83U | -0.933 |
| C69U G83A | -3.04 |
| C76U A119C C123U | 0.258 |
| C72U A89G C95A | -1.39 |
| G74A A122G | -3.39 |
| G68U U134G | ≤ -4.2 |
| C75U C95U C96U | -0.218 |
| C76A U82G | -1.94 |
| C69G A89U | -1.45 |
| A73G C76U A142U | -2.11 |
| A73U G126U | -0.661 |
| G68U C129U | ≤ -4.2 |
| C69A U82G | -1.91 |
| C76A G86C C116G C123A | -2.66 |
| G68A C93A C108A G143U | ≤ -4.2 |
| A73U C85U C103G C105G C116U A142G | ≤ -4.2 |
| G68U A150G | ≤ -4.2 |
| G68A G71C C95A C116U | ≤ -4.2 |
| A73G U134C | 0.53 |

| Variant | polymerase ribozyme fitness (log ratio) |
| --- | --- |
| G74C A147C | -4.06 |
| C69U G136U U146C | -2.94 |
| A73G G92C | -0.498 |
| A66U G94A G100U U148G | ≤ -4.2 |
| A73G C96U | -0.103 |
| G74A C85A U90C G141A U148C | ≤ -4.2 |
| A73C G92A U101G | ≤ -4.2 |
| G68C A89G G94A A113U | ≤ -4.2 |
| G70A U78C G88U U104G A113G G128U U135A | ≤ -4.2 |
| C72A C93G C95G | ≤ -4.2 |
| C72U A91U A106C A115G A119U G143A U145G U151G | ≤ -4.2 |
| C75G G84A A107U A121U U151C | ≤ -4.2 |
| A66U G88A U109A A122C | ≤ -4.2 |
| C75G A113U | ≤ -4.2 |
| C75A A89U G143C | ≤ -4.2 |
| C76A G88C | ≤ -4.2 |
| C75U A98G G112C A122U | ≤ -4.2 |
| C75U G84U U134C | -1.39 |
| C72U C85U C95U | -0.261 |
| G68A C96U | -3.68 |
| C75G G92U | -2.52 |
| C76A C87G C93U | ≤ -4.2 |
| C76A C85A G143U | ≤ -4.2 |
| A73C C93G | ≤ -4.2 |

| Variant | polymerase ribozyme fitness (log ratio) |
| --- | --- |
| C75U C99U | -2.07 |
| G70U G92U A98G A147C | ≤ -4.2 |
| A66G G92C C105U | -4.03 |
| C76G G83A U139A U146C U148C | ≤ -4.2 |
| C69G C96U C103A | -3.44 |
| A73G G141A | -0.252 |
| G68C C93U A113U | ≤ -4.2 |
| G71A A107U G133C | ≤ -4.2 |
| C69U A98U | -1.15 |
| A73U G84A C108G G141A U145C | ≤ -4.2 |
| A73G C95G C96U G124U C149U G152A | ≤ -4.2 |
| C76A A121G | 0.0173 |
| C76A C87U G92C | -2.48 |
| C76A C87U G92A | -2.16 |
| G67A A89G G92C C93A C116U A122C U127C | ≤ -4.2 |
| A73C U77C C93U | ≤ -4.2 |
| G68A C75A G128A A150C | ≤ -4.2 |
| A73G A91U | ≤ -4.2 |
| C76U C79U G83U G94A C105U C118G C132G G136A | ≤ -4.2 |
| A73U G84C C116A | -2.63 |
| C69G G84A U101C | -2.05 |
| C76U A122U | 0.0697 |
| A73C C95U | -2.49 |
